Seven molecules from patent US20050182242A1, “Global analysis of protein activities using proteome chips” (priority 2001, published 2005) can be followed below.

B1: SGA1: yeast GST-HisX6 fusion protein on proteome chip (protein, UniProt P08019 1-549, looked up)
Glucoamylase, intracellular …: MARQKMFYNKLLGMLSVGFGFAWALENITIYEFDFGKGILDQSYGGVFSNNGPSQVQLRDAVLMNGTVVYDSNGAWDSSALEEWLQGQKKVSIEKIFENIGPSAVYPSISPGVVIASPSQTHPDYFYQWIRDSALTINSIVSHSAGPAIETLLQYLNVSFHLQRSNNTLGAGIGYTNDTVALGDPKWNVDNTAFTEDWGRPQNDGPALRSIAILKIIDYIKQSGTDLGAKYPFQSTADIFDDIVRWDLRFIIDHWNSSGFDLWEEVNGMHFFTLLVQLSAVDKSLSYFNASERSSPFVEELRQTRRDISKFLVDPANGFINGKYNYIVGTPMIADTLRSGLDISTLLAANTVHDAPSASHLPFDINDPAVLNTLHHLMLHMRSIYPINDSSKNATGIALGRYPEDVYDGYGFGEGNPWVLATCTASTTLYQLIYRHISEQHDLVVPMNNDCSNAFWSELVFSNLTTLGNDEGYLILEFNTPAFNQTIQKIFQLADSFLVKLKAHVGTDGELSEQFNKYTGFMQGAQHLTWSYTSFWDAYQIRQEVLQSL
modifications: GST-HisX6 tag
notes: yeast GST-HisX6 fusion protein on proteome chip
B2: VMA13: yeast GST-HisX6 fusion protein on proteome chip (protein, UniProt P41807 2-478, looked up)
V-type proton ATPase subunit H: GATKILMDSTHFNEIRSIIRSRSVAWDALARSEELSEIDASTAKALESILVKKNIGDGLSSSNNAHSGFKVNGKTLIPLIHLLSTSDNEDCKKSVQNLIAELLSSDKYGDDTVKFFQEDPKQLEQLFDVSLKGDFQTVLISGFNVVSLLVQNGLHNVKLVEKLLKNNNLINILQNIEQMDTCYVCIRLLQELAVIPEYRDVIWLHEKKFMPTLFKILQRATDSQLATRIVATNSNHLGIQLQYHSLLLIWLLTFNPVFANELVQKYLSDFLDLLKLVKITIKEKVSRLCISIILQCCSTRVKQHKKVIKQLLLLGNALPTVQSLSERKYSDEELRQDISNLKEILENEYQELTSFDEYVAELDSKLLCWSPPHVDNGFWSDNIDEFKKDNYKIFRQLIELLQAKVRNGDVNAKQEKIIIQVALNDITHVVELLPESIDVLDKTGGKADIMELLNHSDSRVKYEALKATQAIIGYTFK
modifications: GST-His6 tag
notes: as for B1
B3: RGD1: yeast GST-HisX6 fusion protein on proteome chip (protein, UniProt P38339 1-666, looked up)
RHO GTPase-activating protein …: MEETAKKPASATVSAKSSHDGGTDDLAHLFSTPEIKKVLNSDVAINALLSRLKQSLLTCEEFMKFIRKKYAFEEEHVQELSKQYKHFFNIQGSTNSSLKKMIHEVLGFDGKMAQVKQSYITALQKMYSEISSLLLTMTKLRKSVKENSKRLEKDVSDAIHSAEKAQSRYNSLCQDWDKLRMTDPTKTKLTLRGSKTTKEQEEELLRKIDNADLEYKQKVDHSNSLRNTFITKERPRIVQELKDLILEIDTAMTIQLQKYTIWTENLVLNTGVTISPLDSTKSMKSFAGSVSNERDLYSFLNKYNQTGKHSLLINKNLIPVSYKKHPSMNHGQKNKSPPKFAVDPSRNSIPKRMISTHNESPFLSSSSNTAAVPNANLNSATPSLNTNKQLPPTMASSISSTSNAAGAMSPSSSIVTSDTTSSITKTLDPGNNSPQIPEELINSLDSDRPISHIQTNNNMPPGVQKNFKTFGVPLESLIEFEQDMVPAIVRQCIYVIDKFGLDQEGIYRKSANVLDVSKLKEEIDKDPANISMILPSKPHSDSDIYLVGSLLKTFFASLPDSVLPKALSSEIKVCLQIEDPTTRKNFMHGLIYNLPDAQYWTLRALVFHLKRVLAHEAQNRMNLRALCIIWGPTIAPANPDDANDVNFQIMAMEVLLEVSDQAFEPE
modifications: GST-His6 tag
notes: as for B1
B4: MUM2: yeast GST-HisX6 fusion protein on proteome chip (protein, UniProt P38236 1-366, looked up)
Protein MUM2: MNYMAYDYDPQHSLETSFNNLAFHPHQQSQQQALYESGERNDARPGLMNTLGQASKMNNSMLPQGSSASPLTGQHSLNSTTNFNMPPSMNTYNYQNVPQASMRNTLNHNNIMNGATANDYWLDPMNNMTNNKDTNGNPNDSMSSMSNMTAKTSINSTAFKNSFVPFNHVTALSMNNVNSNEMNSNKDDRMEALEVELQIKESQIESLENEIQRLKKIFNEGLNYKQNEHKYEKENCHIPQTFELPASLEVIFRKLSSSLHAKEKELAETKENLESILTALALNPTNSVTKYGRYDAESIAHKMVVRLENLTNENKEMAKMLAYGRSKETQIELQLAKKENLELREKIASLEAHLASKESSKEDVAN
modifications: GST-His6 fusion tag
notes: as for B1
B5: SAS3: yeast GST-HisX6 fusion protein on proteome chip (protein, UniProt P34218 1-831, looked up)
Histone acetyltransferase SAS3: MSLTANDESPKPKKNALLKNLEIDDLIHSQFVRSDTNGHRTTRRLFNSDASISHRIRGSVRSDKGLNKIKKGLISQQSKLASENSSQNIVNRDNKMGAVSFPIIEPNIEVSEELKVRIKYDSIKFFNFERLISKSSVIAPLVNKNITSSGPLIGFQRRVNRLKQTWDLATENMEYPYSSDNTPFRDNDSWQWYVPYGGTIKKMKDFSTKRTLPTWEDKIKFLTFLENSKSATYINGNVSLCNHNETDQENEDRKKRKGKVPRIKNKVWFSQIEYIVLRNYEIKPWYTSPFPEHINQNKMVFICEFCLKYMTSRYTFYRHQLKCLTFKPPGNEIYRDGKLSVWEIDGRENVLYCQNLCLLAKCFINSKTLYYDVEPFIFYILTEREDTENHPYQNAAKFHFVGYFSKEKFNSNDYNLSCILTLPIYQRKGYGQFLMEFSYLLSRKESKFGTPEKPLSDLGLLTYRTFWKIKCAEVLLKLRDSARRRSNNKNEDTFQQVSLNDIAKLTGMIPTDVVFGLEQLQVLYRHKTRSLSSLDDFNYIIKIDSWNRIENIYKTWSSKNYPRVKYDKLLWEPIILGPSFGINGMMNLEPTALADEALTNETMAPVISNNTHIENYNNSRAHNKRRRRRRRSSEHKTSKLHVNNIIEPEVPATDFFEDTVSSLTEYMCDYKNTNNDRLIYQAEKRVLESIHDRKGIPRSKFSTETHWELCFTIKNSETPLGNHAARRNDTGISSLEQDEVENDVDTELYVGENAKEDEDEDEDFTLDDDIEDEQISEENDEEEDTYEEDSDDDEDGKRKGQEQDENDIESHIRKERVRKRRKITLIEDDEE
modifications: GST-His6 tag
notes: as for B1
B6: APA2: yeast GST-HisX6 fusion protein on proteome chip (protein, UniProt P22108 1-325, looked up)
Diadenosine …: MIEENLKQKIHDKFVAAKKNGHLKVTHAESKKLKDPQTTTQYWVTFAPSLALKPDANKNSDSKAEDPFANPDEELVVTEDLNGDGEYKLLLNKFPVVPEHSLLVTSEFKDQRSALTPSDLMTAYNVLCSLQGDKDDDVTCERYLVFYNCGPHSGSSQDHKHLQIMQMPEKFIPFQDVLCNGKDHFLPTFNAEPLQDDKVSFAHFVLPLPESSDQVDEDLLAMCYVSLMQRALTFFQDWTNESPELTKSYNVLLTKKWICVVPRSHAKSGPPLMLNINSTGYCGMILVKDREKLENLTEDPHLVDKSLLQCGFPNTAGQKPTEYHY
modifications: GST-His6 fusion tag
notes: as for B1
B7: RPH1: yeast GST-HisX6 fusion protein on proteome chip (protein, UniProt P39956 1-796, looked up)
DNA damage-responsive …: MTKLIAPSEIVGGVPVFKPTYEQFEDFYAYCKAINKYGMKSGVVKVIPPKEWKDKLDLPYSAETLQKIKIKSPIQQHISGNKGLFMVQNVEKNKTYNIIQWKDLSKDYVPPEDPKARRNSRKGSVSKSTKLKLKNFESSFNIDDFEQFRTEYTIDLSDFQNTERLKFLEEYYWKTLNFTTPMYGADTPGSIFPEGLNVWNVAKLPNILDHMETKVPGVNDSYLYAGLWKASFSWHLEDQDLYSINYIHFGAPKQWYSIPQEDRFKFYKFMQEQFPEEAKNCPEFLRHKMFLASPKLLQENGIRCNEIVHHEGEFMITYPYGYHAGFNYGYNLAESVNFALEEWLPIGKKAGKCHCISDSVEIDVKKLAKSWRDNNKESKGTPPLNQLPNPAMPLLHRPTLKEMESSSLRSTSPDVGHFSNFKSKSSGVSSPLLSRMKDYSNIVEPTLEDPTLKLKRISSFQEQPLNKLLKRETSQTAMLTDHEDNIVAMSLTSMANSAASSPRLPLSRLNSSNELSNAQPLLDMTNNTLAFPRPNGPSGLNPLLYISNKNISGISHSAPHSPVNPNISLIKRVKSPNIVTLNISRESSRSPIALNYEARQQHSQQHSFSTPSTVSNLSTSVLGPLSDTNDIKTPHPERPNHKTANRILKKESPVETSKSNLILSKVASTRQEDSFTSRNDDLDKEQGSSPLNSKFAPEEIVLSGKNKIYICKECQRKFSSGHHLTRHKKSVHSGEKPHSCPKCGKRFKRRDHVLQHLNKKIPCISNETTVDAPIMNPTVQPQDGKAAINQQSTPLN
modifications: GST-His6 tag
notes: as for B1

One data set relates to phosphatidylcholine (PC) liposomes. The experiment in a line: Yeast proteome chip probed with PC liposomes. The following applies: liposome binding signal on yeast proteome chip, Cy3-streptavidin detection. The method, boiled down:
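Sonicated liposomes in TBS, of phosphatidylcholine with 1% (w/w) biotin-DHPE plus 5% (w/w) of the named phosphoinositide (PC-only liposomes lacking it), were incubated on blocked chips of GST-RGS-His6-tagged yeast ORF proteins for 1 h at RT. Bound liposomes were detected with Cy3- or Cy5-streptavidin after PBS washes.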
In turn, B1 displayed a PC of 52.83.
On to B2, for which the PC is listed as 45.78.
For the molecule B3, the PC stood at 54.59.
Consider B4, for which the PC turned out to be 46.66.
Molecule B5 gave a PC of 54.00.
Still for that read-out and setting: next, B6: 42.26; B7: 56.93.

A further data set concerns PI(3,4,5)P3 liposomes. The experiment in a line: Yeast proteome chip probed with PI(3,4,5)P3 liposomes. The following applies: liposome binding signal on yeast proteome chip, Cy3-streptavidin detection.
Regarding B1, the “PI(3, 4, 5)P3” value was 26.55.
On the same count and under the same terms, with B2 the figure was 28.12; with B3, 19.35.
B4: the “PI(3, 4, 5)P3” value is recorded as 63.34.
B5: the “PI(3, 4, 5)P3” value amounted to 18.68.
For B6, the “PI(3, 4, 5)P3” value was 40.05.
For B7, the “PI(3, 4, 5)P3” value was 9.90.

Another data set concerns PI(3,4)P2 liposomes. Kind of data set: Yeast proteome chip probed with PI(3,4)P2 liposomes. The following applies: liposome binding signal on yeast proteome chip, Cy3-streptavidin detection.
On to B1, for which the “PI(3, 4)P2” value is 60.59.
The same measure, in the same setting: next, B2: 44.27; B3: 54.31.
B4: the “PI(3, 4)P2” value was found to be 49.29.
Consider B5, for which the “PI(3, 4)P2” value stood at 55.57.
In the case of B6, the “PI(3, 4)P2” value was 31.40.
As to B7, the “PI(3, 4)P2” value is 90.73.

The next data set concerns PI(3)P liposomes. Kind of data set: Yeast proteome chip probed with PI(3)P liposomes. The following applies: liposome binding signal on yeast proteome chip, Cy3-streptavidin detection.
Turning to B1, the “PI(3)P” value came to 16.50.
B2: the “PI(3)P” value is given as 11.50.
For the molecule B3, the “PI(3)P” value is listed as 6.00.
For the molecule B4, the “PI(3)P” value is listed as 81.50.
With B5, the “PI(3)P” value turned out to be 2.00.
With B6, the “PI(3)P” value is given as 22.50.
With B7, the “PI(3)P” value came to 6.00.

For the next data set, the system named is PI(4,5)P2 liposomes. Kind of data set: Yeast proteome chip probed with PI(4,5)P2 liposomes. The following applies: liposome binding signal on yeast proteome chip, Cy3-streptavidin detection.
Turning to B1, the “PI(4, 5)P2” value was 6.75.
As to B2, the “PI(4, 5)P2” value is on record as 34.40.
For B3, the “PI(4, 5)P2” value was determined as 55.31.
Take B4: the “PI(4, 5)P2” value was 38.76.
Take B5: the “PI(4, 5)P2” value turned out to be 17.85.
Turning to B6, the “PI(4, 5)P2” value is listed as 34.84.
Take B7: the “PI(4, 5)P2” value was found to be 18.73.

For the next data set, the system named is PI(4)P liposomes. The experiment in a line: Yeast proteome chip probed with PI(4)P liposomes. The following applies: liposome binding signal on yeast proteome chip, Cy3-streptavidin detection.
Consider B1, for which the “PI(4)P” value is 41.15.
With B2, the “PI(4)P” value came to 16.55.
On to B3, for which the “PI(4)P” value was 127.60.
Still for that read-out and setting: next, B4: 90.15; B5: 16.55; B6: 43.98.
The same measure, in the same setting: next, B7: 66.19.
